Results published in article PMC3936849, “MB109 as bioactive human bone morphogenetic protein-9 refolded and purified from E. coli inclusion bodies” (Microbial Cell Factories, 2014).

Target: the molecule itself
Test: non-reduced SDS-PAGE; SEC-purified denatured monomeric MB109 refolded by rapid dilution (CHAPS, NaCl, EDTA, GSH/GSSG, Tris-HCl, 4°C, 7 days); supernatants run on non-reduced 12% SDS-PAGE; disulfide-linked dimer

B1: MB109 (E. coli-derived mature domain of human bone morphogenetic protein-9, refolded functional dimer) (ligand)
chain: MSAGAGSHCQKTSLRVNFEDIGWDSWIIAPKEYEAYECKGGCFFPLADDVTPTKHAIVQTLVHLKFPTKVGKACCVPTKLSPISVLYKDDMGVPTLKYHYEGMSVAECGCR
notes: engineered first methionine (translational start) directly before Ser320; mature domain of human BMP-9, Ser320-Arg429 (110 amino acids) of the 429-residue polypeptide; Disulfide-linked homodimer of the mature domain; pET21a between NdeI and XhoI with a 3' stop codon; also called hBMP-9 mature domain; human BMP-9
stoichiometry N: 2
